Test results from the supplement of paper PMC12764529.
± gives the half width of the 95% confidence interval.

Legend:
[1] = folding stability dG unfold from trypsin proteolysis; higher = more stable
Experimental: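 Folding stability of de novo designed mini-proteins (<80 aa, no Cys; designed by TrROS, TrMRF, ProteinMPNN and the joint model) was measured by cDNA display proteolysis with trypsin and chymotrypsin. Each protease was used at 11 concentrations in a threefold dilution series plus a no-protease condition. K50 was inferred by Bayesian fitting of sequencing counts, and dG unfold was derived against a sequence-predicted unfolded-state K50 (Tsuboyama et al. method). Sequences shown include variable-length N-terminal GS-type padding (SAGGSAGG...) inside a display construct carrying a PA tag. Rows were kept only if the AF2 dimer inter-PAE was >15, to exclude likely homo-oligomers.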

[2] = folding stability dG unfold (combined trypsin and chymotrypsin); higher = more stable
In short: (§1)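 K50 was inferred by Bayesian fitting of sequencing counts obtained after protease digestion of designed mini-proteins. Unfolding free energy was derived by comparison with a sequence-predicted unfolded-state K50 and a shared folded-state K50, for each protease or both combined. The mini-proteins were under 80 residues, had no cysteine, were carried in a PA-tagged cDNA display construct, and were kept only if AlphaFold2 dimer inter-PAE exceeded 15.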

[3] = folding stability dG unfold from chymotrypsin proteolysis; higher = more stable
In short: as §1

| Sequence | folding stability dG unfold [1] | folding stability dG unfold [2] | folding stability dG unfold [3] |
| --- | --- | --- | --- |
| SAGGSEVRELAEAIAAARGLPLRAIETKEVTPDTVEITMELPDDRTLTVTVPRSPEGGYEVTVTEDASAGGS [r8_284_JUSTAS] | -0.349 ± 0.26 kcal/mol | < -1 kcal/mol | – |
| SAGGSAGGSMVEIDPDNLVLTIVDPETGKAAVITAPPTADGTPVIKDVVVFDPDGNPHTFTVDSAGGSAGGS [r12_952_TrMRF] | 0.666 ± 0.022 kcal/mol | 0.13 ± 0.091 kcal/mol | – |
| SAGGSAGGSMLTITVKTTDPAKGGSATTVIPVPVPGSVEEARELAEEIKKKLPPEVVEITVLESAGGSAGGS [r12_871_JUSTAS] | -0.294 ± 0.19 kcal/mol | < -1 kcal/mol | – |
| SAGMKFKPGAKVEVYNKKTKKKIVLPVEELRKLAREKFGVETEEERLAEAIKEKAKENGFEIVKIEPVSAGG [r19_67_TrROS_Hall] | -0.166 ± 0.35 kcal/mol | -0.0445 ± 0.44 kcal/mol | – |
| SAGGSAGGSMEIVSTGSKEDAEEAVKEKVAAGEKARVVLRSPTDPTPVSEEEVTISEEELKEASAGGSAGGS [r12_241_JUSTAS] | -1.61 ± 0.88 kcal/mol | < -1 kcal/mol | – |
| SAGGSAGGSAGGEPVSFLVKTPEDRWYPAVAIPETGEVLVEVPNEVRVLPADAEFEVSPASAGGSAGGSAGG [r7_434_TrMRF] | -0.0127 ± 0.11 kcal/mol | < -1 kcal/mol | – |
| SAGGGMSTPVGVDSKLTEVREDTETGLITTTSVYRAGSEVTTVTESRPLGNPEDVTTLETTTTPASASAGGS [r16_89_JUSTAS] | 0.0405 ± 0.041 kcal/mol | -0.204 ± 0.15 kcal/mol | – |
| SAGGSAGGSSAEEIAKELGYKEIEVKPLRPVSTETLDSGGYSQKTEYVTTIKLPDGTEIEIPVSAGGSAGGS [r12_221_JUSTAS] | 0.788 ± 0.025 kcal/mol | 0.275 ± 0.051 kcal/mol | – |
| SAGGSAGGSAGGKPKITITQEQHPNGMHRVNVRNPNGKPIGEVPFDSPQQLEEAKEFLLDSAGGSAGGSAGG [r7_476_TrROS] | -0.608 ± 0.3 kcal/mol | < -1 kcal/mol | – |
| SAGGSDYVGRVQIDKVDPEDPGQVRINLEWWQPNGKAIPIEHTIPNEQLKNNPPDATIEFKMEPPPSAGGSA [r2_128_TrROS] | -0.514 ± 0.32 kcal/mol | < -1 kcal/mol | – |
| SAGGSAMIRTFNIKFPGKSEEEALEAIKNLPEEVTEKIEEVKVEEIKKEGDSIYVKLTIKVPKEILSAGGSA [r15_244_JUSTAS] | 0.636 ± 0.19 kcal/mol | 0.00147 ± 0.51 kcal/mol | – |
| SAGGSAGGSETSIVFLEEEVLVEEEITLYRDGTPTRERRVRTERVVIRVPVKPEEDVNNPLLLSAGGSAGGS [r12_713_JUSTAS] | -0.765 ± 0.82 kcal/mol | < -1 kcal/mol | – |
| SAMTTLEKEGDVTITRTKLPDGTVVVTTEVPESRPLAELTTETITIYPDGTVTTTSQTLTLDPATGRLGSAG [r14_724_JUSTAS] | -0.146 ± 0.075 kcal/mol | -0.567 ± 0.23 kcal/mol | – |
| SAGGYDKEGKPIRVVEINIPPDQPDTILKFAREEIDNNRWDIIHITSPNQVKWIKQAFPEKGIPIHIQSAGG [r13_353_TrROS] | 0.311 ± 0.3 kcal/mol | -0.167 ± 0.38 kcal/mol | – |
| SAGGSAGGSAGGETVVEEDPAAGTTVVTYHEPLPTPSTRENVTTLTHDPSSSAATTTESSAGGSAGGSAGGS [r10_1041_JUSTAS] | -1.14 ± 0.27 kcal/mol | < -1 kcal/mol | – |
| SAGGSAGGSAKEVEVEVEEELPGGYYRATVRLPGEEKPLEVVVKGPREDALKAAEELAKEESAGGSAGGSAG [r3_104_TrMRF] | -0.0768 ± 0.16 kcal/mol | < -1 kcal/mol | – |
| SAGGTKYTVSLRPPPTALPSREFTDSPLEIVEALPEDTTEATVTVDNNSTSTTVTFTTKEDLIAAVASSAGG [r13_299_JUSTAS] | 0.00719 ± 0.14 kcal/mol | -0.14 ± 0.33 kcal/mol | – |
| GMAEELAVEKAKEYLAPIPKPYEIDPEKKTVTLPGGGPLKTIPILVTVKDENGNVIKVIEVPIKVVSIPPGS [r1_318_JUSTAS] | 0.0543 ± 0.093 kcal/mol | -0.159 ± 0.25 kcal/mol | – |
| SAGGSAGGSAGGEILIFDDNGKRIIVIPIPPENRYRVVVIHENTGIPEVKEAKLEEVLSSAGGSAGGSAGGS [r10_482_TrMRF] | 0.92 ± 0.055 kcal/mol | 0.104 ± 0.28 kcal/mol | – |
| SAGKVEVKVDEETGTVTVTVEVNGELVEKKVEVKPPPPVKVFSAEELRERNPELKKLLEENPDKLVVLESAG [r5_957_TrROS_Hall] | -0.473 ± 0.26 kcal/mol | < -1 kcal/mol | – |
| SAGNIKKGSIYMPEDGWMIKIEYPDPGKEIHIPFDDDLSEIKDNLEEPGFEPVAVEVEPFPPGQPMEISAGG [r19_386_TrROS] | -1.05 ± 0.22 kcal/mol | < -1 kcal/mol | – |
| SAGGSAGGSAGMKVVLTVPESEAAKPEVLEAKAQEIKEKHPGEEVEVEFITNPFPPGTPLSAGGSAGGSAGG [r11_743_JUSTAS] | 0.456 ± 0.019 kcal/mol | -0.108 ± 0.1 kcal/mol | – |
| SAGGSAGGSAGGMENGKIEIYKKEKDTFIAKINNGDKVIIIEKIKSIEELKEALIELGYGSAGGSAGGSAGG [r7_91_TrMRF] | 0.527 ± 0.029 kcal/mol | 0.136 ± 0.17 kcal/mol | – |
| SMVKAKVEVNPETNAAVVEFELPELKVIALRVFDENNEVHTLVEVEIPPGPRVPLAEIPLKPNEELVLPLSA [r9_1172_TrMRF] | 0.0917 ± 0.26 kcal/mol | -0.685 ± 0.76 kcal/mol | – |

| Sequence | folding stability dG unfold [1] | folding stability dG unfold [2] | folding stability dG unfold [3] |
| --- | --- | --- | --- |
| SAKVFTAEEIKALAEELEKAGLEVEAVVLDKDGKIVAVAPKELLKPPPVEEVKEVKVEVEDDPEKLKAAKSA [r9_568_TrROS_Hall] | -0.442 ± 0.97 kcal/mol | < -1 kcal/mol | – |
| SAGGSAGGSAGGGMTVVPTLEFFPGTRLVVRPVVVRDAEGRVVEVEPEVTPLPPPTLSLLSAGGSAGGSAGG [r7_135_JUSTAS] | -0.353 ± 0.17 kcal/mol | < -1 kcal/mol | – |
| SAGGSAGGSPPYIRVKIEFQNPNGQERKFKITIPPDQPLSQAKDIAPDFAKNGYPVRIEDIEISAGGSAGGS [r12_804_TrROS] | -0.209 ± 0.17 kcal/mol | < -1 kcal/mol | – |
| SAMKTTETITVTVEMEPEVAEEVAEEIAEKIEKEKNYEITEVKVSVFPTDGKYVVRVPIKITYPTPELKSAG [r14_219_JUSTAS] | -0.771 ± 0.42 kcal/mol | < -1 kcal/mol | – |
| SAGGSAGGSAGGTAKELVNEIAKEFMQDHPNQEIPIEVEVRTNGKPVKAEIPIRLPPGQSAGGSAGGSAGGS [r10_1204_TrROS] | -0.402 ± 0.07 kcal/mol | < -1 kcal/mol | – |
| SAGGSAGGSAGGGKDVPVIAVPAGDEEAAEEFARRLVAELERRTGKPAGDIPVDFVEVESAGGSAGGSAGGS [r10_1216_TrMRF] | -0.243 ± 0.2 kcal/mol | -0.886 ± 0.84 kcal/mol | – |
| SAGGSAGGSAPAEFPIEILEVERNPGNPMVEVGIKIPGDGRYIKIHFPPNGKIDIELVPLPSAGGSAGGSAG [r3_294_TrROS] | 0.265 ± 0.1 kcal/mol | -0.29 ± 0.16 kcal/mol | – |
| SAGGSAGGSAGGDIEINVNANSPEEAKKFLGEFAQEGPAEIKIEVTPPPPPMPPNDPEYKSAGGSAGGSAGG [r7_261_TrROS] | -0.235 ± 0.096 kcal/mol | < -1 kcal/mol | – |
| SAGGPVIKIPIEIMMPNNDLNKFANEIAKELQDDGYKVKINPIEFEPQRDPDGKPDYVHFRATVEVQPSAGG [r13_707_TrROS] | -0.228 ± 0.18 kcal/mol | < -1 kcal/mol | – |
| SAGGSAGGIRIHRDNDKYVIHVPMDPNQPPENIKDILRDLPGLEDPEEIEYVPNPNGQAMIKIPSAGGSAGG [r6_516_TrROS] | -0.0828 ± 0.18 kcal/mol | < -1 kcal/mol | – |
| SAGGSAGGSAGGSATVINIPASSLSEEEIEALAKALEEEDPSIKGPKIEKGDGTYTIVQSAGGSAGGSAGGS [r4_330_JUSTAS] | 0.553 ± 0.046 kcal/mol | -0.533 ± 0.23 kcal/mol | – |
| SAGMEAEAERIAEELERELPPTYRITSITVTPQPDNTWVAPITIEKVDAEGRVLGPSTVTVTLPPGLGSAGG [r19_28_JUSTAS] | 0.494 ± 0.044 kcal/mol | -0.452 ± 0.14 kcal/mol | – |
| SAGGSAGGSAGKITIRNPENGYAIKIKFGDKEKTIPIDPDQIDEFLEKLPGIKVEPYPWKSAGGSAGGSAGG [r11_57_TrROS] | -0.574 ± 0.2 kcal/mol | -0.899 ± 0.59 kcal/mol | – |
| SAGGSAGGSAGGMTETLDFNGEKVVVTELPPTNTYQVTTTTPGTGVPTTTAARKEEVLTSAGGSAGGSAGGS [r10_482_JUSTAS] | 0.443 ± 0.045 kcal/mol | -0.177 ± 0.28 kcal/mol | – |
| SAGGSAGGSWPFRIEIYNPENGKEEVKDIPGDLDELKDLIPPGYRVKIEFGDEEITIPIDDIKSAGGSAGGS [r20_36_TrROS] | -0.331 ± 0.16 kcal/mol | -0.587 ± 0.27 kcal/mol | – |
| SAGGSAGGSAGGPKTVTISGGPLEDLLEKLDNMPPDDTITIHHPGGYYTVKVENDKIKIVSAGGSAGGSAGG [r7_560_TrROS] | -0.416 ± 0.13 kcal/mol | -0.69 ± 0.22 kcal/mol | – |
| SAGGSAGGSAGGGSSLVDPEGKPLPPRPEVVTTTGSYYSSLPGDGYYHLEEPVVEPVYPESAGGSAGGSAGG [r7_572_JUSTAS] | 0.339 ± 0.051 kcal/mol | -0.198 ± 0.14 kcal/mol | – |
| SAGGSAGGSGSMAEVEAIVERAKELGLVPKSITTDPATNKPVVDLQPPSPELLEADPEILALLSAGGSAGGS [r12_482_JUSTAS] | -0.585 ± 0.23 kcal/mol | < -1 kcal/mol | – |
| SAGNPKIIEEETIPMPDGGPMKIYVDPEAPRIEIYNPDNGKPEEFPIPPGEKLEFPMPPDGWMTVKVLSAGG [r19_118_TrROS] | -0.279 ± 0.14 kcal/mol | < -1 kcal/mol | – |
| SAGGSAGGSAGGTAEELKEKLPDVEFVPLEELENSVLILAKPPGGPVKLILVDGDKVVVASAGGSAGGSAGG [r7_25_TrMRF] | 0.322 ± 0.097 kcal/mol | – | – |
| SAGGSAGGSAGGSMVAKELAEKIGAKVEGVEVKPIFDPEGKPVSEELKAKIEVLPPDYPLSAGGSAGGSAGG [r7_650_JUSTAS] | -0.537 ± 0.19 kcal/mol | – | – |
| SNVFPMEMTITVPVRDPKNGKKKTVDIPVPMYYRMEPEPYPDGKREMEPIPMEQFLEEIRRQAKELAKKGSA [r9_698_TrROS] | 0.764 ± 0.21 kcal/mol | – | – |
| SAGGSAGGSAGGKKKKKKVSINIRGGMSVEEVKGKAQELQSQGDPDVKEVKIHISPNMWSAGGSAGGSAGGS [r10_233_TrROS] | 0.33 ± 0.11 kcal/mol | – | – |
| SAEKVTLTITVKMTEEELKEIAEKVGMKVEITVEKEEDGLYRVTLTFETPEEAEKAREALEKAGYKVEPSAG [r14_745_TrROS_Hall] | – | 4.6 ± 0.16 kcal/mol | 4.57 ± 0.14 kcal/mol |
